From patent publication US12042530B2, “Target peptides for immunotherapy and diagnostics” (University of Virginia Patent Foundation, priority 2012, dated 2024)
Non-standard residues stand in square brackets, D forms with d. No end group written: not given here. pT = C[C@@H](OP(=O)(O)O)[C@H](N)C(=O)O; pS = N[C@@H](COP(=O)(O)O)C(=O)O

What was measured:
HLA-B*0702 = biological target: T1, HLA-B*0702 (Homo sapiens, UniProt P01889); experiment: Phosphopeptides presented in association with class I molecules (HLA-B*0702) on cancer cells: melanoma and/or leukemia; set-up: key: Melanoma (M); Leukemia (L); L/M: Melanoma (M) and/or Leukemia (L); settings: cancer type on which the HLA-B*0702 phosphopeptide is presented
T1 construct: endogenous in cells; host or cells: melanoma and/or leukemia cells

[1] = biological target: T2, HLA-B*0702 (HLA-B7) peptide complexes (Homo sapiens, UniProt P01889); experiment: HLA-B*0702 phosphopeptides associated with leukemia samples (isolation of HLA-associated peptides); settings: for Copies/cell class, ALL1: acute lymphoblastic leukemia sample ALL1; for Copies/cell class, HCL1: hairy cell leukemia sample HCL1; for Copies/cell class, B Cell: healthy B cells; for Copies/cell class, T Cell: healthy T cells
T2 construct: endogenous in cells; host or cells: JY B-lymphoblastoid line; primary ALL, CLL, HCL, AML samples; bone marrow; healthy B and T cells
Source text: To identify naturally processed tumor-associated phosphopeptides, HLA-A*0201 (HLA-A2) and HLA-B*0702 (HLA-B7) peptide complexes from four (4) chronic lymphocytic leukemia (CLL) tumor samples, a mantle cell lymphoma sample (MCL), one acute lymphoblastic leukemia (ALL), and an acute myeloid leukemia (AML) sample, in addition to healthy splenic T and B-cells and the cultured lymphoblastoid cell line JY were isolated. These efforts yielded 10 HLA-A2-restricted and 86 HLA-B7-restricted phosphopeptide antigens (see Tables 6 and 7).
All cell lines were grown at 37° C. with 5% CO2 in growth medium consisting of RPMI 1640 supplemented with 10% FCS and two mM L-glutamine. Blood or leukapheresis samples were taken from patients with high-burden leukemia in heparin. Tumor cells were recovered by layering the blood over density gradient (Ficoll) and collecting the tumor layer following centrifugation. The tumor was washed in tris-buffered saline (TBS). The purity of the tumor was assessed using flow cytometry and was >98% pure in all cases. For healthy T and B-cell populations, a normal spleen sample processed and tonsil sample was collected and lymphocytes released through mechanical disruption. Mononuclear cells were isolated using a density gradient and 10^9 T cells isolated using anti-CD19 or anti-CD3 microbeads (Miltenyi Biotec Inc., Auburn, California, United States of America) with purity >98% were obtained. Bone marrow sample was obtained from an elective orthopedic procedure and red cell-depleted using hypotonic lysis. This sample was not processed further.
Class I MHC molecules were immunoaffinity purified from the JY cell line or from primary tumor samples, and their associated peptides were extracted as previously described in Zarling et al., 2006. Approximately 1.2-14×10^9 cells were lysed in a solution containing 20 mM Tris-HCl (pH 8.0), 150 mM NaCl, 1% CHAPS, one mM PMSF, five μg/mL aprotinin, 10 μg/mL leupeptin, 10 μg/mL pepstatin A, 1 μg/ml calyculin A, and phosphatase inhibitor (cocktails I and II; Sigma-Aldrich). The mixture was subjected to centrifugation and the resulting supernatant was passed over protein A sepharose pre-loaded with the HLA-A2-specific antibody BB7.2 or HLA-B7-specific antibody MEL Peptides were eluted from the purified class I MHC molecules with 10% acetic acid.

323 (RPQRA[pT]SNVF; listed as Homo sapiens) [compound 323]
L/M (HLA-B*0702): L | Copies/cell class, AML1 [1]: 2 (2 indicates 1-5 copies/cell) | Copies/cell class, CLL2 [1]: 4 (4 indicates >25 copies per cell) | Copies/cell class, CLL4 [1]: 4 (4 indicates >25 copies per cell) | Copies/cell class, JY [1]: 4 (4 indicates >25 copies per cell) | Copies/cell class, ALL1 [1]: 4 (4 indicates >25 copies per cell) | Copies/cell class, HCL1 [1]: 4 (4 indicates >25 copies per cell) | Copies/cell class, B Cell [1]: 2 (2 indicates 1-5 copies/cell) | Copies/cell class, T Cell [1]: 4 (4 indicates >25 copies per cell)

350 (RPW[pS]PAVSA; listed as Homo sapiens) [compound 350]
L/M (HLA-B*0702): L | Copies/cell class, JY [1]: 1 (1 indicates <1 copy/cell) | Copies/cell class, ALL1 [1]: 1 (1 indicates <1 copy/cell) | Copies/cell class, HCL1 [1]: 1 (1 indicates <1 copy/cell)

391 (YQR[pS]FDEVEGV; listed as Homo sapiens) [compound 391]
L/M (HLA-B*0702): L | Copies/cell class, AML1 [1]: 1 (1 indicates <1 copy/cell)

313 (RPF[pS]PREAL; listed as Homo sapiens) [compound 313]
L/M (HLA-B*0702): L | Copies/cell class, CLL4 [1]: 4 (4 indicates >25 copies per cell) | Copies/cell class, HCL1 [1]: 4 (4 indicates >25 copies per cell) | Copies/cell class, B Cell [1]: 4 (4 indicates >25 copies per cell) | Copies/cell class, T Cell [1]: 4 (4 indicates >25 copies per cell)

356 (RRS[pS]LDAEIDSL; listed as Homo sapiens) [compound 356]
L/M (HLA-B*0702): L | Copies/cell class, AML1 [1]: 1 (1 indicates <1 copy/cell)

337 (RPR[pS]PSPIS; listed as Homo sapiens) [compound 337]
L/M (HLA-B*0702): L | Copies/cell class, AML1 [1]: 2 (2 indicates 1-5 copies/cell)

284 (KPPH[pS]PLVL; listed as Homo sapiens) [compound 284]
L/M (HLA-B*0702): L | Copies/cell class, ALL1 [1]: 4 (4 indicates >25 copies per cell) | Copies/cell class, T Cell [1]: 2 (2 indicates 1-5 copies/cell)

272 (FRR[pS]PTKSSL; listed as Homo sapiens) [compound 272]
L/M (HLA-B*0702): L | Copies/cell class, AML1 [1]: 2 (2 indicates 1-5 copies/cell)

347 (RPV[pS]PFQEL; listed as Homo sapiens) [compound 347]
L/M (HLA-B*0702): L | Copies/cell class, AML1 [1]: 2 (2 indicates 1-5 copies/cell) | Copies/cell class, CLL2 [1]: 2 (2 indicates 1-5 copies/cell) | Copies/cell class, CLL4 [1]: 2 (2 indicates 1-5 copies/cell) | Copies/cell class, JY [1]: 4 (4 indicates >25 copies per cell) | Copies/cell class, ALL1 [1]: 3 (3 indicates 6-25 copies per cell) | Copies/cell class, HCL1 [1]: 3 (3 indicates 6-25 copies per cell) | Copies/cell class, B Cell [1]: 3 (3 indicates 6-25 copies per cell) | Copies/cell class, T Cell [1]: 3 (3 indicates 6-25 copies per cell)

352 (RRK[pS]QVAEL; listed as Homo sapiens) [compound 352]
L/M (HLA-B*0702): L | Copies/cell class, AML1 [1]: 4 (4 indicates >25 copies per cell)

296 (KPY[pS]PLASL; listed as Homo sapiens) [compound 296]
L/M (HLA-B*0702): L | Copies/cell class, CLL2 [1]: 1 (1 indicates <1 copy/cell) | Copies/cell class, JY [1]: 4 (4 indicates >25 copies per cell) | Copies/cell class, ALL1 [1]: 2 (2 indicates 1-5 copies/cell) | Copies/cell class, HCL1 [1]: 2 (2 indicates 1-5 copies/cell) | Copies/cell class, B Cell [1]: 2 (2 indicates 1-5 copies/cell) | Copies/cell class, T Cell [1]: 3 (3 indicates 6-25 copies per cell)

318 (RPKPSS[pS]PV; listed as Homo sapiens) [compound 318]
L/M (HLA-B*0702): L | Copies/cell class, CLL2 [1]: 1 (1 indicates <1 copy/cell) | Copies/cell class, ALL1 [1]: 2 (2 indicates 1-5 copies/cell) | Copies/cell class, BM ([1]; healthy bone marrow): 1 (1 indicates <1 copy/cell)

295 (KPR[pS]PVVEL; listed as Homo sapiens) [compound 295]
L/M (HLA-B*0702): L/M | Copies/cell class, AML1 [1]: 4 (4 indicates >25 copies per cell) | Copies/cell class, CLL2 [1]: 4 (4 indicates >25 copies per cell) | Copies/cell class, CLL4 [1]: 4 (4 indicates >25 copies per cell) | Copies/cell class, JY [1]: 4 (4 indicates >25 copies per cell) | Copies/cell class, ALL1 [1]: 2 (2 indicates 1-5 copies/cell) | Copies/cell class, HCL1 [1]: 4 (4 indicates >25 copies per cell)

288 (KPPYRSH[pS]L; listed as Homo sapiens) [compound 288]
L/M (HLA-B*0702): L | Copies/cell class, AML1 [1]: 1 (1 indicates <1 copy/cell) | Copies/cell class, CLL2 [1]: 1 (1 indicates <1 copy/cell) | Copies/cell class, JY [1]: 2 (2 indicates 1-5 copies/cell) | Copies/cell class, ALL1 [1]: 2 (2 indicates 1-5 copies/cell) | Copies/cell class, HCL1 [1]: 2 (2 indicates 1-5 copies/cell)

344 (RP[pS]SPALYF; listed as Homo sapiens) [compound 344]
L/M (HLA-B*0702): L | Copies/cell class, AML1 [1]: 1 (1 indicates <1 copy/cell) | Copies/cell class, CLL2 [1]: 1 (1 indicates <1 copy/cell) | Copies/cell class, CLL4 [1]: 1 (1 indicates <1 copy/cell) | Copies/cell class, ALL1 [1]: 1 (1 indicates <1 copy/cell) | Copies/cell class, HCL1 [1]: 1 (1 indicates <1 copy/cell)

274 (FSI[pS]PVRL; listed as Homo sapiens) [compound 274]
L/M (HLA-B*0702): L | Copies/cell class, ALL1 [1]: 4 (4 indicates >25 copies per cell) | Copies/cell class, B Cell [1]: 2 (2 indicates 1-5 copies/cell) | Copies/cell class, T Cell [1]: 2 (2 indicates 1-5 copies/cell)

343 (RPS[pS]LPDL; listed as Homo sapiens) [compound 343]
L/M (HLA-B*0702): L | Copies/cell class, AML1 [1]: 2 (2 indicates 1-5 copies/cell) | Copies/cell class, CLL2 [1]: 2 (2 indicates 1-5 copies/cell) | Copies/cell class, JY [1]: 3 (3 indicates 6-25 copies per cell) | Copies/cell class, ALL1 [1]: 4 (4 indicates >25 copies per cell) | Copies/cell class, HCL1 [1]: 1 (1 indicates <1 copy/cell) | Copies/cell class, B Cell [1]: 3 (3 indicates 6-25 copies per cell) | Copies/cell class, T Cell [1]: 4 (4 indicates >25 copies per cell)

382 (SPS[pS]PSVRRQL; listed as Homo sapiens) [compound 382]
L/M (HLA-B*0702): L | Copies/cell class, AML1 [1]: 2 (2 indicates 1-5 copies/cell) | Copies/cell class, B Cell [1]: 2 (2 indicates 1-5 copies/cell) | Copies/cell class, T Cell [1]: 2 (2 indicates 1-5 copies/cell)

289 (KPQTRGK[pT]F; listed as Homo sapiens) [compound 289]
L/M (HLA-B*0702): L | Copies/cell class, ALL1 [1]: 1 (1 indicates <1 copy/cell) | Copies/cell class, HCL1 [1]: 1 (1 indicates <1 copy/cell)
